Measured values reported in IntAct's records for PubMed 17762867.

B1: Adaptin ear-binding coat-associated protein 2 (Mus musculus), Q9D1J1 (parent)
chain: MEESEYESVLCVKPEVHVYRIPPRATNRGYRASEWQLDQPSWSGRLRITAKGKVAYIKLEDRTSGELFAQAPVDQFPGTAVESVTDSSRYFVIRIEDGNGRRAFIGLGFGDRGDAFDFNVALQDHFKWVKQQCEFAKQAQNPDEGPKLDLGFKDGQTIKINIANMRKKEGAAGTPRARPTSAGGLSLLPPPPGGKSSTVIPPSGEQLSVGGSLVQPAVVSGSGGATELWPQSKPAAAATADIWGDFTKSTGSPSSQSQPGTGWVQF
partner: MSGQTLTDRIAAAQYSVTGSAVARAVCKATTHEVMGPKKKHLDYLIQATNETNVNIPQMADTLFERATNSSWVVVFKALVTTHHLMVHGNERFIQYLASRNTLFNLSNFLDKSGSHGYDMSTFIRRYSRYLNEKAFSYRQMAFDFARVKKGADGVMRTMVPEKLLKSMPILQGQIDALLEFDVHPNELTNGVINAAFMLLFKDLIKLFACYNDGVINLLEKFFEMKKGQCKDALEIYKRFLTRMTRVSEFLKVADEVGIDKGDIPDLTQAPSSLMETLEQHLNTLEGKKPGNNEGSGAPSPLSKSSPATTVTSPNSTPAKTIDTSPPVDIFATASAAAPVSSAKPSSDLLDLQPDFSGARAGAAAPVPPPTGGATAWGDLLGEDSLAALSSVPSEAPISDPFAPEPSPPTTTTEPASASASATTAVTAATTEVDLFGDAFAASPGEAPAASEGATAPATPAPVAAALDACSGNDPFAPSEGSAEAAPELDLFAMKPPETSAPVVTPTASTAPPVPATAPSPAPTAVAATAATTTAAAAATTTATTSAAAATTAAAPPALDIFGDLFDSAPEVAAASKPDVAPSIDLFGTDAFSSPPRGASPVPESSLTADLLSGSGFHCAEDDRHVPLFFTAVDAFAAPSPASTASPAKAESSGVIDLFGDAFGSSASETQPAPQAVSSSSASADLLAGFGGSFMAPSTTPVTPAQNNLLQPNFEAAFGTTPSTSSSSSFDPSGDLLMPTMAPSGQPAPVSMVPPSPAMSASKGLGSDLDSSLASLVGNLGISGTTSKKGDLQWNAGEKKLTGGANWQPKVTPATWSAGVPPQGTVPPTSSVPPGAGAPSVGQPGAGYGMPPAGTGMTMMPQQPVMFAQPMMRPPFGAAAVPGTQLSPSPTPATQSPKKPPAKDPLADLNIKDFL
B2: Adaptin ear-binding coat-associated protein 1 (Mus musculus), Q9CR95 (parent)
chain: MAAELEYESVLCVKPDVSVYRIPPRASNRGYRASDWKLDQPDWTGRLRITSKGKIAYIKLEDKVSGELFAQAPVEQYPGIAVETVTDSSRYFVIRIQDGTGRSAFIGIGFTDRGDAFDFNVSLQDHFKWVKQETEISKESQEMDNRPKLDLGFKEGQTIKLSIGNITAKKGGASKPRASGTGGLSLLPPPPGGKVTIPPPSSSVAISNHVTPPPIPKSNHGGNDSDILLDLDSPAPVSTSAPAPVSTSNDLWGDFSTASSSVPNQAPQPSNWVQF
B3: Adaptin ear-binding coat-associated protein 2 (Mus musculus), Q9D1J1 (parent)
chain: B1 chain
partner: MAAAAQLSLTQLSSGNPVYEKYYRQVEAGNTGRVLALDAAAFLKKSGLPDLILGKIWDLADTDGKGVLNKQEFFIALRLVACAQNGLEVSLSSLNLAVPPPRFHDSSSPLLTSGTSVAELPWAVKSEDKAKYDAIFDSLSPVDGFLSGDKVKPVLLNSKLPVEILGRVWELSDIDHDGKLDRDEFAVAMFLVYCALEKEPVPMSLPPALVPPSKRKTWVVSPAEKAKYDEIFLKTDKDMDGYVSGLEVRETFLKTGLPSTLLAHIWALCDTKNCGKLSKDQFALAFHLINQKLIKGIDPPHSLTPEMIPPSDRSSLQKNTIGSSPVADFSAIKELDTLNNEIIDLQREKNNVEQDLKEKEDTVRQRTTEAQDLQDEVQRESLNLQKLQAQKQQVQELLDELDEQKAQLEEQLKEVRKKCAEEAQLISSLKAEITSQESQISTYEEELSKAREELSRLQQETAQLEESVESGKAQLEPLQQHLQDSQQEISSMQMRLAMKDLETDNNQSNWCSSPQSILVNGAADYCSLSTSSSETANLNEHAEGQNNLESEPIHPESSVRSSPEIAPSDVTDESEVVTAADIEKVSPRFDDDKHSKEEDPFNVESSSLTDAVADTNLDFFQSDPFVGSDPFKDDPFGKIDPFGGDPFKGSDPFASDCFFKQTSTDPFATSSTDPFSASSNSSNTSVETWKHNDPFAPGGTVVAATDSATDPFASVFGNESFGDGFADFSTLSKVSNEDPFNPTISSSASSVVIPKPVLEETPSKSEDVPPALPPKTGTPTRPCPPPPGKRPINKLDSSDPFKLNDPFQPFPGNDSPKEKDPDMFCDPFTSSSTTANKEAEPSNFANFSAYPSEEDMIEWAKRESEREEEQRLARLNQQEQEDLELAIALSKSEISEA
B4: Adaptin ear-binding coat-associated protein 2 (Mus musculus), Q9D1J1 (parent)
chain: B1 chain
B5: Adaptin ear-binding coat-associated protein 1 (Mus musculus), Q9CR95 (parent)
chain: B2 chain
partner: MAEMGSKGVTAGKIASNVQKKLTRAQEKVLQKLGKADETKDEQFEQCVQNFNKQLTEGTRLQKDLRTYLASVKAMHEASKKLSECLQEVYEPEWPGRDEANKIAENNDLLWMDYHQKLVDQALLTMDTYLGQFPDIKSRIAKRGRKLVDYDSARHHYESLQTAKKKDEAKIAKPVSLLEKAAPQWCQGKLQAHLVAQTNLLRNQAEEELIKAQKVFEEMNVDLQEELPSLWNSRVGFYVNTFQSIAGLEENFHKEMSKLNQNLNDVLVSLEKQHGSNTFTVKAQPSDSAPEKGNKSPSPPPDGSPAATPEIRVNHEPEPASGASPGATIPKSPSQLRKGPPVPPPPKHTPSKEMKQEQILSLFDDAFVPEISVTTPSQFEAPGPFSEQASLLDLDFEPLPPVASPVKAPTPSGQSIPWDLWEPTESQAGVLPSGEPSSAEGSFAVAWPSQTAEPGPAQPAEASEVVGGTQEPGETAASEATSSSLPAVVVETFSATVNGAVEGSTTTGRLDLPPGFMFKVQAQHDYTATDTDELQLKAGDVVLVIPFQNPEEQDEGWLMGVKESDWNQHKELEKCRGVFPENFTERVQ

Variants of: B1
Details: with ap180_rat Snap91, Q05140

Variant	effect of a mutation on the interaction
MEESEYESVLCVKPEVHVYRIPPRATNRGYRASEWQLDQPSWSGRLRITAKGKVAYIKLEDRTSGELFAQAPVDQFPGTAVESVTDSSRYFVIRIEDGNGARAFIGLGFGDRGDAFDFNVALQDHFKWVKQQCEFAKQAQNPDEGPKLDLGFKDGQTIKINIANMRKKEGAAGTPRARPTSAGGLSLLPPPPGGKSSTVIPPSGEQLSVGGSLVQPAVVSGSGGATELWPQSKPAAAATADIWGDFTKSTGSPSSQSQPGTGWVQF [R101A]	disrupting interaction
MEESEYESVLCVKPEVHVYAIPPRATNRGYRASEWQLDQPSWSGRLRITAKGKVAYIKLEDRTSGELFAQAPVDQFPGTAVESVTDSSRYFVIRIEDGNGRRAFIGLGFGDRGDAFDFNVALQDHFKWVKQQCEFAKQAQNPDEGPKLDLGFKDGQTIKINIANMRKKEGAAGTPRARPTSAGGLSLLPPPPGGKSSTVIPPSGEQLSVGGSLVQPAVVSGSGGATELWPQSKPAAAATADIWGDFTKSTGSPSSQSQPGTGWVQF [R20A]	disrupting interaction
MEESEYESVLCVKPEVHVYRIPPRATNRGYRASEWQLDQPAWSGRLRITAKGKVAYIKLEDRTSGELFAQAPVDQFPGTAVESVTDSSRYFVIRIEDGNGRRAFIGLGFGDRGDAFDFNVALQDHFKWVKQQCEFAKQAQNPDEGPKLDLGFKDGQTIKINIANMRKKEGAAGTPRARPTSAGGLSLLPPPPGGKSSTVIPPSGEQLSVGGSLVQPAVVSGSGGATELWPQSKPAAAATADIWGDFTKSTGSPSSQSQPGTGWVQF [S41A]	increasing interaction

Variants of: B2
Details: with Synj1, Q62910-1
Synj1, Q62910-1, sequence (Q62910 whole entry): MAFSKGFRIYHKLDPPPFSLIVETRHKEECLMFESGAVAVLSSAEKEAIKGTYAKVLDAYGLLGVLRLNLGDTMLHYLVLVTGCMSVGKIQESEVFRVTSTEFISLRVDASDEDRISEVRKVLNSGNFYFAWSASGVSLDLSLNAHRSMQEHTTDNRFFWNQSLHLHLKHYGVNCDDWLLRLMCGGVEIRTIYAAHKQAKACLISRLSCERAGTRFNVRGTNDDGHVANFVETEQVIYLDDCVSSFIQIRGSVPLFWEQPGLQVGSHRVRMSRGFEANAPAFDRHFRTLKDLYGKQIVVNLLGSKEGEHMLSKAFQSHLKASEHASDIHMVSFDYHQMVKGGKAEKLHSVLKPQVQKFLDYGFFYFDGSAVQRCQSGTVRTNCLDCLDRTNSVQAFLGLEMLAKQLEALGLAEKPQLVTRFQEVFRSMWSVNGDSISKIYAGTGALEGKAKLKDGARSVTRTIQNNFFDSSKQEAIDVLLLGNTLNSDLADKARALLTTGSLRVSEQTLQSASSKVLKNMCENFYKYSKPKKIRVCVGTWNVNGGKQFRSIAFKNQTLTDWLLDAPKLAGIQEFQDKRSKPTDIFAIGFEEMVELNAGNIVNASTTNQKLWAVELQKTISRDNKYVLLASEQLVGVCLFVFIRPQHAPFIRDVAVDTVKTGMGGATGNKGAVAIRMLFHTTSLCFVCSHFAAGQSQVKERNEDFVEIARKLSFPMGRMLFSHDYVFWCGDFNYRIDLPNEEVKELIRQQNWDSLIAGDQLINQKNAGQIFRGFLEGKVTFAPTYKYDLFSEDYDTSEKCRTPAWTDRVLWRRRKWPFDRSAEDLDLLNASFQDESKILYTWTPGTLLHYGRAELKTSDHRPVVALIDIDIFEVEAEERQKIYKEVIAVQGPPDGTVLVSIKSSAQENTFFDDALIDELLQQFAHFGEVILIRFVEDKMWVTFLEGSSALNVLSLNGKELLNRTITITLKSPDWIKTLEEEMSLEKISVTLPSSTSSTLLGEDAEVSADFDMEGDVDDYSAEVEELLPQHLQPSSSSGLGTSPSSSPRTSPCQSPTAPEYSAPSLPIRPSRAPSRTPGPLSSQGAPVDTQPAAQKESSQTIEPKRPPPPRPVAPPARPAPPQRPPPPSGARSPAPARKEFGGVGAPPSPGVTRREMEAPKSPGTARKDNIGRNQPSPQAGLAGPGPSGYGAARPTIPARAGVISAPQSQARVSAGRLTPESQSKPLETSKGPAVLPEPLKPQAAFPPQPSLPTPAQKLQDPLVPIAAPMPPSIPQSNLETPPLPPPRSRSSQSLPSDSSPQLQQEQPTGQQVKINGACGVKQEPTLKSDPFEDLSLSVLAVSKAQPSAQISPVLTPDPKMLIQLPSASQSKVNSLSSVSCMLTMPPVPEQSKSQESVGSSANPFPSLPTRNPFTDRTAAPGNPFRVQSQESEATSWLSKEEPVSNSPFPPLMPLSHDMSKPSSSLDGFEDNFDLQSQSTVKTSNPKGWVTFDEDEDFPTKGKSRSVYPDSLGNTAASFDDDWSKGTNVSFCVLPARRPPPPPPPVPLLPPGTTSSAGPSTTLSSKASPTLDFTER

Variant	effect of a mutation on the interaction
MAAELEYESVLCVKPDVSVYRIPPRASNRGYRASDWKLDQPDWTGRLRITSKGKIAYIKLEDKVSGELFAQAPVEQYPGIAVETVTDSSRYFVIRIQDGTGASAFIGIGFTDRGDAFDFNVSLQDHFKWVKQETEISKESQEMDNRPKLDLGFKEGQTIKLSIGNITAKKGGASKPRASGTGGLSLLPPPPGGKVTIPPPSSSVAISNHVTPPPIPKSNHGGNDSDILLDLDSPAPVSTSAPAPVSTSNDLWGDFSTASSSVPNQAPQPSNWVQF [R102A]	disrupting interaction
MAAELEYESVLCVKPDVSVYAIPPRASNRGYRASDWKLDQPDWTGRLRITSKGKIAYIKLEDKVSGELFAQAPVEQYPGIAVETVTDSSRYFVIRIQDGTGRSAFIGIGFTDRGDAFDFNVSLQDHFKWVKQETEISKESQEMDNRPKLDLGFKEGQTIKLSIGNITAKKGGASKPRASGTGGLSLLPPPPGGKVTIPPPSSSVAISNHVTPPPIPKSNHGGNDSDILLDLDSPAPVSTSAPAPVSTSNDLWGDFSTASSSVPNQAPQPSNWVQF [R21A]	decreasing interaction

Variants of: B3
Details: with Eps15, A7BFV9

Variant	effect of a mutation on the interaction
MEESEYESVLCVKPEVHVYRIPPRATNRGYRASEWQLDQPSWSGRLRITAKGKVAYIKLEDRTSGELFAQAPVDQFPGTAVESVTDSSRYFVIRIEDGNGARAFIGLGFGDRGDAFDFNVALQDHFKWVKQQCEFAKQAQNPDEGPKLDLGFKDGQTIKINIANMRKKEGAAGTPRARPTSAGGLSLLPPPPGGKSSTVIPPSGEQLSVGGSLVQPAVVSGSGGATELWPQSKPAAAATADIWGDFTKSTGSPSSQSQPGTGWVQF [R101A]	disrupting interaction
MEESEYESVLCVKPEVHVYAIPPRATNRGYRASEWQLDQPSWSGRLRITAKGKVAYIKLEDRTSGELFAQAPVDQFPGTAVESVTDSSRYFVIRIEDGNGRRAFIGLGFGDRGDAFDFNVALQDHFKWVKQQCEFAKQAQNPDEGPKLDLGFKDGQTIKINIANMRKKEGAAGTPRARPTSAGGLSLLPPPPGGKSSTVIPPSGEQLSVGGSLVQPAVVSGSGGATELWPQSKPAAAATADIWGDFTKSTGSPSSQSQPGTGWVQF [R20A]	disrupting interaction

Variants of: B4
Details: with Synj1, Q62910-1

Variant	effect of a mutation on the interaction
MEESEYESVLCVKPEVHVYAIPPRATNRGYRASEWQLDQPSWSGRLRITAKGKVAYIKLEDRTSGELFAQAPVDQFPGTAVESVTDSSRYFVIRIEDGNGRRAFIGLGFGDRGDAFDFNVALQDHFKWVKQQCEFAKQAQNPDEGPKLDLGFKDGQTIKINIANMRKKEGAAGTPRARPTSAGGLSLLPPPPGGKSSTVIPPSGEQLSVGGSLVQPAVVSGSGGATELWPQSKPAAAATADIWGDFTKSTGSPSSQSQPGTGWVQF [R20A]	decreasing interaction
MEESEYESVLCVKPEVHVYRIPPRATNRGYRASEWQLDQPSWSGRLRITAKGKVAYIKLEDRTSGELFAQAPVDQFPGTAVESVTDSSRYFVIRIEDGNGARAFIGLGFGDRGDAFDFNVALQDHFKWVKQQCEFAKQAQNPDEGPKLDLGFKDGQTIKINIANMRKKEGAAGTPRARPTSAGGLSLLPPPPGGKSSTVIPPSGEQLSVGGSLVQPAVVSGSGGATELWPQSKPAAAATADIWGDFTKSTGSPSSQSQPGTGWVQF [R101A]	disrupting interaction

Variants of: B4
Details: with epn1_rat Epn1, O88339
epn1_rat Epn1, O88339, sequence (O88339 whole entry): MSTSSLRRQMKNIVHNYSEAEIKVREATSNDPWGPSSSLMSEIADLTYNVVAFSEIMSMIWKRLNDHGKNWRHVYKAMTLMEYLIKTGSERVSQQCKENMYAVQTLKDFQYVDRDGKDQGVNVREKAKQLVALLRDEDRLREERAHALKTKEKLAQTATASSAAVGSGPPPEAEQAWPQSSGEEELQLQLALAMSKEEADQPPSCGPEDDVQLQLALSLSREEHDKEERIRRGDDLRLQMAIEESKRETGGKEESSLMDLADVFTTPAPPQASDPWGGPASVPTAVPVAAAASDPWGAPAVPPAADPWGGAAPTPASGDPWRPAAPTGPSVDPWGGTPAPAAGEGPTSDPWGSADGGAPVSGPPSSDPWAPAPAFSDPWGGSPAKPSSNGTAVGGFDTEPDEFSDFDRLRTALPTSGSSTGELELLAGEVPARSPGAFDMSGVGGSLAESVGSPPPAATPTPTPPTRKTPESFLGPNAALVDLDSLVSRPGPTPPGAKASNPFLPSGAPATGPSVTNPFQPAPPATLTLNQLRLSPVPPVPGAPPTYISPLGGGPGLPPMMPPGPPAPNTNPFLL

Variant	effect of a mutation on the interaction
MEESEYESVLCVKPEVHVYRIPPRATNRGYRASEWQLDQPSWSGRLRITAKGKVAYIKLEDRTSGELFAQAPVDQFPGTAVESVTDSSRYFVIRIEDGNGARAFIGLGFGDRGDAFDFNVALQDHFKWVKQQCEFAKQAQNPDEGPKLDLGFKDGQTIKINIANMRKKEGAAGTPRARPTSAGGLSLLPPPPGGKSSTVIPPSGEQLSVGGSLVQPAVVSGSGGATELWPQSKPAAAATADIWGDFTKSTGSPSSQSQPGTGWVQF [R101A]	disrupting interaction

Variants of: B5
Details: with bin1_rat Bin1, O08839

Variant	effect of a mutation on the interaction
MAAELEYESVLCVKPDVSVYRIPPRASNRGYRASDWKLDQPDWTGRLRITSKGKIAYIKLEDKVSGELFAQAPVEQYPGIAVETVTDSSRYFVIRIQDGTGASAFIGIGFTDRGDAFDFNVSLQDHFKWVKQETEISKESQEMDNRPKLDLGFKEGQTIKLSIGNITAKKGGASKPRASGTGGLSLLPPPPGGKVTIPPPSSSVAISNHVTPPPIPKSNHGGNDSDILLDLDSPAPVSTSAPAPVSTSNDLWGDFSTASSSVPNQAPQPSNWVQF [R102A]	disrupting interaction
MAAELEYESVLCVKPDVSVYAIPPRASNRGYRASDWKLDQPDWTGRLRITSKGKIAYIKLEDKVSGELFAQAPVEQYPGIAVETVTDSSRYFVIRIQDGTGRSAFIGIGFTDRGDAFDFNVSLQDHFKWVKQETEISKESQEMDNRPKLDLGFKEGQTIKLSIGNITAKKGGASKPRASGTGGLSLLPPPPGGKVTIPPPSSSVAISNHVTPPPIPKSNHGGNDSDILLDLDSPAPVSTSAPAPVSTSNDLWGDFSTASSSVPNQAPQPSNWVQF [R21A]	disrupting interaction
